According to doi:10.1101/2023.11.20.567910:

Tests used:
[1] = target: HIV-1AD8 Env variants (N332 substituted) tested against V3-glycan bnAbs
[2] = target: HIV-1AD8 Env variants (N332 substituted) tested against V3-glycan bnAbs; remark: listed apart in the source

## 10–1074 (antibody)
[1]
  IC50 of neutralisation: entry of Env-pseudotyped virus into Cf2-Th/CD4+CCR5+ cells (luciferase); told of most variants: > 10 µg/mL

## 2G12 (antibody)
[1]
  IC50 of neutralisation: entry of Env-pseudotyped virus into Cf2-Th/CD4+CCR5+ cells (luciferase); told of most variants here, of all AD8 variants in p-0007: > 10 µg/mL

## PGT121 (antibody)
[2]
  IC50 of neutralisation: entry of Env-pseudotyped virus into Cf2-Th/CD4+CCR5+ cells (luciferase): < 1 µg/mL
